Experiments:
[1] = molecular target: SARS-CoV-2 spike (B.1.351, South Africa, Beta) (SARS-CoV-2); test: MSD V-PLEX ACE2 kit, sVNT, positive control; competitor ACE2 (mouse study)
[2] = molecular target: SARS-CoV-2 spike (P.1, Brazil, Gamma) (SARS-CoV-2); test: as above
[3] = molecular target: SARS-CoV-2 spike (B.1.1.7, UK, Alpha) (SARS-CoV-2); test: as above
[4] = molecular target: SARS-CoV-2 spike (B.1.351, South Africa, Beta) (SARS-CoV-2); test: MSD V-PLEX ACE2 kit, sVNT, positive control; competitor ACE2 (NHP study)
[5] = molecular target: SARS-CoV-2 spike (P.1, Brazil, Gamma) (SARS-CoV-2); test: as above
[6] = molecular target: SARS-CoV-2 spike (B.1.1.7, UK, Alpha) (SARS-CoV-2); test: as above

Measured: ACE2-binding percent inhibition

ACE2 Calibration Reagent (included in the MSD kit)
100%: all assays above

Reference: patent US20230219996A1
